# Measurements reported in patent US20110263451A1, “BIOLOGICAL MARKERS PREDICTIVE OF RHEUMATOID ARTHRITIS RESPONSE TO LYMPHOTOXIN ANTAGONISTS” (GENENTECH, INC, priority 2008, published 2011).
# B1: muLTβR-Fc: recombinant murine LTβ receptor conjugated to an immunoglobulin Fc region (murine IgG2a Fc) (protein)
# chain: QLVPPYRIENQTCWDQDKEYYEPMHDVCCSRCPPGEFVFAVCSRSQDTVCKTCPHNSYNEHWNHLSTCQLCRPCDIVLGFEEVAPCTSDRKAECRCQPGMSCVYLDNECVHCEEERLVLCQPGTEAEVTDEIMDTDVNCVPCKPGHFQNTSSPRARCQPHTRCEIQGLVEAAPGTSYSDTICKNPPEPGAML
# modifications: left off: a dimerising Fc or GST
# Experiments:
# solLTαβ [1] = assay: solLTαβ levels in serum of EAE mice (murine LTαβ ECLA); format: in vivo, mouse (SJL/J); conditions: 6 mg/kg s.c. three times a week, FIG. 3
# Protocol: Soluble mouse LTαβ was measured using streptavidin coated 96-Well Microtiter plates (Meso Scale Discovery). Wells were then blocked with 150 uL of PBS containing 5% bovine serum albumin for 1-2 hours. Twenty-five uL per well of 1 μg/ml murine LTβR-Fc-biotin (R&D Systems) diluted in PBS/0.05% Tween® was then incubated with the blocked plate for 30 minutes. The wells were washed 6× with PBS containing 0.05% Tween®-20 (PBS/Tween®) and a titration curve of recombinant mouse LTα1β2 (R&D Systems), controls and unknown test samples diluted in high salt assay diluent (PBS, 0.5% BSA, 0.05% Tween® 20, 10 ppm Proclin, 5 mM EDTA, 0.2% BGG, 0.25% CHAPS+3.5 mM NaCl pH 7.4) were added at 25 μl/well and incubated for 2 hours. […] The plate was washed with wash buffer 6× and 150 μl/well of Read Buffer T (Meso Scale Discovery) diluted 1:2 in H20 was added to the plate. The plate was immediately read on an MA6000 SECTOR™ Imager (Meso Scale Discovery). […]
# Female SJL/J mice were immunized intradermally at the base of the tail with 200 μl of emulsion containing 150 μg of peptide PLP 139-151 in 100 μl of PBS and 100 μl of CFA. […] Animals were evaluated daily for clinical signs using the same grading system as for the transgenic mice.
# solLTαβ [2] = assay: solLTαβ levels in serum of CIA mice (murine LTαβ ECLA); format: in vivo, mouse (DBA-1J); conditions: 6 mg/kg s.c. three times weekly, treated for 11 days, FIG. 4A
# Protocol: Soluble mouse LTαβ was measured using streptavidin coated 96-Well Microtiter plates (Meso Scale Discovery). Wells were then blocked with 150 uL of PBS containing 5% bovine serum albumin for 1-2 hours. Twenty-five uL per well of 1 μg/ml murine LTβR-Fc-biotin (R&D Systems) diluted in PBS/0.05% Tween® was then incubated with the blocked plate for 30 minutes. The wells were washed 6× with PBS containing 0.05% Tween®-20 (PBS/Tween®) and a titration curve of recombinant mouse LTα1β2 (R&D Systems), controls and unknown test samples diluted in high salt assay diluent (PBS, 0.5% BSA, 0.05% Tween® 20, 10 ppm Proclin, 5 mM EDTA, 0.2% BGG, 0.25% CHAPS+3.5 mM NaCl pH 7.4) were added at 25 μl/well and incubated for 2 hours. The wells were washed 6× with PBS/Tween® and an anti-LTα monoclonal antibody (N3EV) (Genentech) labeled with SULFO-TAG® NHS (Meso Scale Discovery) was diluted to 3 ug/ml in assay diluent and added to the wells at 25 μl/well for 1 hour. The plate was washed with wash buffer 6× and 150 μl/well of Read Buffer T (Meso Scale Discovery) diluted 1:2 in H20 was added to the plate. The plate was immediately read on an MA6000 SECTOR™ Imager (Meso Scale Discovery). A weighted 4-parameter fit curve was plotted using XLFit (Guildford, UK) from the resulting standard curve values and unknown concentrations were extrapolated. […]
molecule,measurement,setting,value
B1,solLTαβ levels in serum,solLTαβ [1],Elevated
same,solLTαβ levels in serum,solLTαβ [2],Elevated
